Measurements as given in US20040259196A1, “T cell receptor variants expressed in mesenchymal cells and uses thereof” (priority 2001, published 2004).
Each block holds one molecule with its values, some of them ahead of it.

Legend:
[1] = tested on: anti-peptide SEQ ID NO:37 antibody; experiment: Competition of antibody binding by pre-incubation with the immunizing peptide; parameters: species or system rabbit; details: pre-incubation of purified immune serum with soluble peptide, 30 min, room temperature
Description: FIGS. 2A-2F show flow cytometric analysis of J^intJ-Cβ2 expression by mesenchymal cells. Mouse embryonic fibroblasts (MEF) (2E) and different MBA-13 cell strains (1-3; 2A-2C, respectively) were stained with preimmunized (histogram I) or immunized (histogram II) purified antibodies from rabbit serum. The rabbits were immunized with a synthetic segment of SEQ ID NO:2, namely SEQ ID NO:37, with the sequence LAEPRGFVCGVE. As a second antibody, we used Fab FITC conjugated donkey anti-rabbit IgG. Staining with second antibody only gave a histogram shown in histogram III. Cells stained with rabbit polyclonal antibodies to irrelevant peptide 1121 of the sequence RGGGGGRGGLHD, similarly produced and purified, served as negative control (histogram IV). Competition of antibody binding was performed by pre-incubation of the purified immune serum with the specific immunizing peptide SEQ ID NO:37 for 30 min at room temperature (2D, histogram). Competition with irrelevant peptide 1121 served as negative control (data not shown). The results of one experiment, out of three performed, are shown.
This strongly supports the conclusion that J^int-Jβ2.6-C protein is present on the surface of the MBA-13 cells. It is noteworthy that thymocytes do express J^int-Jβ2.6-C on the mRNA level but are not reactive with the antibody (FIGS. 2F and 3). […]

[2] = target: J^int-Jβ2.6-C protein (truncated mesenchymal TCRβ lacking the V region) (mouse); experiment: flow cytometry on MBA-13 cells
[3] = tested on: 293T cells; experiment: Cell cycle flow cytometric analysis of transfected 293T cells; format: cell-based, human; details: 293T cells co-transfected with pTα
Description: FIG. 13 Recombinant mesenchymal TCRβ (GFP-J^int-Jβ2.6-C) in a preTCR-like complex causes apoptotic cell death upon overexpression. (A) Immunofluorescence analysis of cells transfected with cDNA constructs encoding a fusion protein of J^int-Jβ2.6-C linked to GFP, together with pTα HA vector. (B) Western blot analysis of extracts from 293T cells transfected with GFP-J^int-Jβ2.6-C together with HA-pTα (lane 1). Control GFP and HA vectors (lane 2), GFP vector and HA-pTα0 (lane 3), HA vector and GFP-J^int-Jβ2.6-C (lane 4) and untransfected cells (lane 5). Immunoblotting was performed with an anti-GFP monoclonal antibody. The position of the fusion protein, GFP-J^int-Jβ2.6-C is indicated (GFP-J^int) as is the position of GFP free protein (GFP). (C) Cell cycle flow cytometric analysis of 293T cells transfected with the indicated vectors. The cell cycle analysis of GFP negative cells that were treated with GFP-J^int-Jβ2.6-C and pTα but remained untransfected (C-I) serves as a representative control; similar patterns were observed following transfection with empty vectors or separately with GFP-J^int-Jβ2.6-C and pTα. […]
Next, we examined the results of overexpression of J^int-Jβ2.6-Cβ. A cDNA construct encoding a fusion protein of J^int-Jβ2.6-C N-terminally linked to green fluorescence protein (GFP) was transfected along with pTα into human 293T cells (FIG. 13). […]

Molecule: LAEPRGFVCGVE (listed as Mus musculus) [immunizing peptide]
- competition of antiserum staining of MBA-13 cells [1]: reduced the ability of the antiserum to stain the cells

- percent of the cell population stained [2]: 34%
Molecule: hamster anti-mouse TCRβ monoclonal antibody, clone H57-597

B1: GFP-J^int-Jβ2.6-Cβ: fusion protein of J^int-Jβ2.6-C N-terminally linked to green fluorescence protein (GFP), expressed from a cDNA construct (protein)
chain: MGEYLAEPRGFVCGVEPLCSYEQYFGPGTRLTVLEDLRNVTPPKVSLFEPSKAEIANKQKATLVCLARGFFPDHVELSWWVNGKEVHSGVSTDPQAYKESNYSYCLSSRLRVSATFWHNPRNHFRCQVQFHGLSEEDKWPEGSPKPVTQNISAEAWGRADCGITSASYHQGVLSATILYEILLGKATLYAVLVSGLVLMAMVKKKNS
modifications: left off: large carriers
notes: fusion protein of J^int-Jβ2.6-C N-terminally linked to green fluorescence protein (GFP), expressed from a cDNA construct
- shift of the population to sub-G1, indicating massive apoptosis [3]: 59%
